Assay results taken from US20060029947A1.

Biological target: Bacillus anthracis protective antigen (PA) (Bacillus anthracis) (UniProt P13423)
Sequence (P13423 30-764 limits assumed): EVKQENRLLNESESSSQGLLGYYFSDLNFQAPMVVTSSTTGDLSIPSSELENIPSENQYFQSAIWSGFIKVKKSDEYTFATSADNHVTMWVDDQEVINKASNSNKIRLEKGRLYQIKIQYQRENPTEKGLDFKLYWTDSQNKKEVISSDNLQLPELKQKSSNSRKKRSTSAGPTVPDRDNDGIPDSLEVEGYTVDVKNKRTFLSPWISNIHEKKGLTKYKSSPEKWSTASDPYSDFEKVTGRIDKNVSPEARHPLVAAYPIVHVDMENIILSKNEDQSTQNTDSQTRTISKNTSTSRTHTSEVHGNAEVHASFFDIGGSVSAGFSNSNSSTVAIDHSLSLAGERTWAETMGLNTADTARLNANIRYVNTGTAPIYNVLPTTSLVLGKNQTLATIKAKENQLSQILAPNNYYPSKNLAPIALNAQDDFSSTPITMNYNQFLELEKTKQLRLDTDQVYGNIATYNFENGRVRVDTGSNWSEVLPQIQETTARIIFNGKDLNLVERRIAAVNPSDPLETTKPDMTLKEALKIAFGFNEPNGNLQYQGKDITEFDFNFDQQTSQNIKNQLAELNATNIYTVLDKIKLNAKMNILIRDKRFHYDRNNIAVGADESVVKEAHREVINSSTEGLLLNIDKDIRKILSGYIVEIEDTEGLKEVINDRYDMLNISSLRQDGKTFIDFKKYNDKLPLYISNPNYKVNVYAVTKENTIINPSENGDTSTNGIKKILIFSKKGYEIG

Chain of 26-10 scFv-g3p fusion (pAK200) (P69168 268-424): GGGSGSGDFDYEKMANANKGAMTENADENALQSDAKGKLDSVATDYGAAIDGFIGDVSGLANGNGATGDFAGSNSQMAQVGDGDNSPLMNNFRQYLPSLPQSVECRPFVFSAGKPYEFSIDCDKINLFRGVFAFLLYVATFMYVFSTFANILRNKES

## 26-10 scFv-g3p fusion (pAK200) (from UniProt P69168 268-424)
  M (mean fluorescence): 7.25
